Source: US20040005659

Target: T1, β-casein (Sigma, St Louis, Mo.), P02666
T1 chain: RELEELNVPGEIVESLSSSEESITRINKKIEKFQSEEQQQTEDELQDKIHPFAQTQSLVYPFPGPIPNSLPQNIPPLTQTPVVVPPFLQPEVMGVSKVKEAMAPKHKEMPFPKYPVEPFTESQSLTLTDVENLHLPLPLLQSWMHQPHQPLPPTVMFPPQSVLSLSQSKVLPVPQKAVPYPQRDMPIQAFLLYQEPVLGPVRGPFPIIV

B1: PRSS11-L CDS-HAHIS (recombinant human PRSS11-L protease with a C-terminal HA6HIS epitope/affinity tag, expressed in baculovirus-infected Sf9 cells) (protein)
chain: MHLALPASAGLHQLSSPRYKFNFIADVVEKIAPAVVHIELFLRHPLFGRNVPLSSGSGFIMSEAGLIITNAHVVSSNSAAPGRQQLKVQLQNGDSYEATIKDIDKKSDIATIKIHPKKKLPVLLLGHSADLRPGEFVVAIGSPFALQNTVTTGIVSTAQREGRELGLRDSDMDYIQTDAIINYGNSGGPLVNLDGEVIGINTLKVTAGISFAIPSDRITRFLTEFQDKQIKDWKKRFIGIRMRTITPSLVDELKASNPDFPEVSSGIYVQEVAPNSPSQRGGIQDGDIIVKVNGRPLVDSSELQEAVLTESPLLLEVRRGNDDLLFSIAPEVVM
  cleavage of β-casein, SDS-PAGE with Coomassie Brilliant Blue staining: The proteolytic activity of PRSS11-L was further confirmed by its cleavage of casein.
